Measured values taken from US20260242735A1 (UNIVERSIT T BASEL, published 2026).

B1: Refmab #5 (antibody, V domains shown)
VH: QVQLVQSGAEVKKPGASVKVSCKASGYTFTNYDINWVRQAPGQGLEWIGWIYPGDGSTKYNEKFKAKATLTADTSTSTAYMELRSLRSDDTAVYYCASGYEDAMDYWGQGTTVTVSS
VL: DIQMTQSPSSLSASVGDRVTINCKASQDINSYLSWFQQKPGKAPKTLIYRANRLVDGVPSRFSGSGSGQDYTLTISSLQPEDFATYYCLQYDEFPLTFGGGTKVEIK
notes: Full-length format is human IgG1 Fc silent (PG-LALA); also made as Fab; The alanine scan used IgG or Fab
B2: Refmab #5 (antibody, V domains shown)
VH: B1 VH
VL: B1 VL
notes: The alanine scan used IgG or Fab
B3: Refmab #6 (antibody, V domains shown)
VH: QVQLQQPGAEVVKPGASVKMSCKASGYTFTSYYIHWIKQTPGQGLEWVGVIYPGNDDISYNQKFQGKATLTADKSSTTAYMQLSSLTSEDSAVYYCAREVRLRYFDVWGQGTTVTVSS
VL: EIVLTQSPGSLAVSPGERVTMSCKSSQSVFFSSSQKNYLAWYQQIPGQSPRLLIYWASTRESGVPDRFTGSGSGTDFTLTISSVQPEDLAIYYCHQYLSSRTFGQGTKLEIK
notes: as for B1
B4: Refmab #6 (antibody, V domains shown)
VH: B3 VH
VL: B3 VL
notes: as for B2

Tests used:
human CD33 R202A = human CD33 R202A (human, UniProt P20138 18-364); test: alanine scan, flow cytometry;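 further: HEK293-T cells transiently expressing single-residue alanine mutants of CD33 (alanine swapped to serine), antibody binding read by fluorescence in duplicate, background-subtracted, expressed relative to wild-type CD33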
Chain of human CD33 R202A (P20138 18-364 R202A limits assumed): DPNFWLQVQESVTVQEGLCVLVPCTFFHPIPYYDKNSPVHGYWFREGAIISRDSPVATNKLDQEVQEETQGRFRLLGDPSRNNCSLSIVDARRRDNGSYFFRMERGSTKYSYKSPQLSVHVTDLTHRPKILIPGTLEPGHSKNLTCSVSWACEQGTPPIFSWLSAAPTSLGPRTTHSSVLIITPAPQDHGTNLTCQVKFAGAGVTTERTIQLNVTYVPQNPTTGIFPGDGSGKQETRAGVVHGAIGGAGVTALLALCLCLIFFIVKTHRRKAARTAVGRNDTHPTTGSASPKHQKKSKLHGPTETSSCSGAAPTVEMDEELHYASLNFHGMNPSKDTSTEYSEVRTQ

human CD33 P203A = human CD33 P203A (human, UniProt P20138 18-364); test: alanine scan, flow cytometry;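 further: HEK293-T cells transiently expressing single-residue alanine mutants of CD33 (alanine swapped to serine), antibody binding read by fluorescence in duplicate, background-subtracted, expressed relative to wild-type CD33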
Chain of human CD33 P203A (P20138 18-364 P203A limits assumed): as the sequence (P20138 18-364 R202A limits assumed) above, with A185R, P186A counted along it

human CD33 G218A = human CD33 G218A (human, UniProt P20138 18-364); test: alanine scan, flow cytometry;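 further: HEK293-T cells transiently expressing single-residue alanine mutants of CD33 (alanine swapped to serine), antibody binding read by fluorescence in duplicate, background-subtracted, expressed relative to wild-type CD33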
Chain of human CD33 G218A (P20138 18-364 G218A limits assumed): as the sequence (P20138 18-364 R202A limits assumed) above, with A185R, G201A counted along it

human CD33 I227A = human CD33 I227A (human, UniProt P20138 18-364); test: alanine scan, flow cytometry;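 further: HEK293-T cells transiently expressing single-residue alanine mutants of CD33 (alanine swapped to serine), antibody binding read by fluorescence in duplicate, background-subtracted, expressed relative to wild-type CD33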
human CD33 V214A = human CD33 V214A (human, UniProt P20138 18-364); test: alanine scan, flow cytometry
human CD33 G260A = human CD33 G260A (human, UniProt P20138 18-364); test: alanine scan, flow cytometry
human CD33 H206A = human CD33 H206A (human, UniProt P20138 18-364); test: alanine scan, flow cytometry
human CD33 V231A = human CD33 V231A (human, UniProt P20138 18-364); test: alanine scan, flow cytometry
human CD33 T240A = human CD33 T240A (human, UniProt P20138 18-364); test: alanine scan, flow cytometry
Chain of human CD33 T240A (P20138 18-364 T240A limits assumed): as the sequence (P20138 18-364 R202A limits assumed) above, with A185R, T223A counted along it

human CD33 L229A = human CD33 L229A (human, UniProt P20138 18-364); test: alanine scan, flow cytometry
Chain of human CD33 L229A (P20138 18-364 L229A limits assumed): as the sequence (P20138 18-364 R202A limits assumed) above, with A185R, L212A counted along it

human CD33 H259A = human CD33 H259A (human, UniProt P20138 18-364); test: alanine scan, flow cytometry
human CD33 A265S = human CD33 A265S (human, UniProt P20138 18-364); test: alanine scan, flow cytometry
human CD33 K250A = human CD33 K250A (human, UniProt P20138 18-364); test: alanine scan, flow cytometry
human CD33 L210A = human CD33 L210A (human, UniProt P20138 18-364); test: alanine scan, flow cytometry
human CD33 H339A = human CD33 H339A (human, UniProt P20138 18-364); test: flow cytometry, HEK293-T, alanine scan;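 further: transiently transfected HEK293-T cells expressing single alanine mutants of human CD33 (alanine residues changed to serine), antibody binding fluorescence minus background, relative to wild type CD33, mean of duplicates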
Chain of human CD33 H339A (P20138 18-364 H339A limits assumed): as the sequence (P20138 18-364 R202A limits assumed) above, with A185R, H322A counted along it
Experimental: (§1) An alanine scan on human CD33 was performed to the determine the residues on CD33 that are involved in binding to the antibodies investigated. […] Briefly, a mutation library of CD33 was created by high-throughput, site-directed mutagenesis. Each residue was individually mutated to alanine, with alanine codons mutated to serine. The mutant library was arrayed in 384-well microplates and transiently transfected into HEK293-T. Following transfection, cells were incubated with the indicated antibodies (IgG or Fab) at concentrations pre-determined using an independent immunofluorescence titration curve on wild type CD33. […] Binding of each antibody to each mutant clone was determined in duplicates. For each point, background fluorescence was subtracted from the raw data, which were then normalized to antibody reactivity with wild type CD33.
(§2) Critical residues for antibody binding (outlined in dark grey) were residues whose mutations led to a binding of the test Abs of less than 20%. Additional secondary residues (outlined in light grey) were identified that led to a binding of the test Abs of between 20 and 40% as compared to the wild type CD33.

human CD33 T302A = human CD33 T302A (human, UniProt P20138 18-364); test: flow cytometry, HEK293-T, alanine scan;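 further: transiently transfected HEK293-T cells expressing single alanine mutants of human CD33 (alanine residues changed to serine), antibody binding fluorescence minus background, relative to wild type CD33, mean of duplicates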
Experimental: as §1, §2

human CD33 L343A = human CD33 L343A (human, UniProt P20138 18-364); test: flow cytometry, HEK293-T, alanine scan;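 further: transiently transfected HEK293-T cells expressing single alanine mutants of human CD33 (alanine residues changed to serine), antibody binding fluorescence minus background, relative to wild type CD33, mean of duplicates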
Experimental: as §1, §2

human CD33 V294A = human CD33 V294A (human, UniProt P20138 18-364); test: flow cytometry, HEK293-T, alanine scan;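 further: transiently transfected HEK293-T cells expressing single alanine mutants of human CD33 (alanine residues changed to serine), antibody binding fluorescence minus background, relative to wild type CD33, mean of duplicates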
Experimental: as §1, §2

human CD33 D298A = human CD33 D298A (human, UniProt P20138 18-364); test: flow cytometry, HEK293-T, alanine scan
Experimental: as §1, §2

human CD33 A272S = human CD33 A272S (human, UniProt P20138 18-364); test: flow cytometry, HEK293-T, alanine scan
Experimental: as §1, §2

human CD33 P301A = human CD33 P301A (human, UniProt P20138 18-364); test: flow cytometry, HEK293-T, alanine scan
Experimental: as §1, §2

human CD33 R296A = human CD33 R296A (human, UniProt P20138 18-364); test: flow cytometry, HEK293-T, alanine scan
Chain of human CD33 R296A (P20138 18-364 R296A limits assumed): as the sequence (P20138 18-364 R202A limits assumed) above, with A185R, R279A counted along it
Experimental: as §1, §2

human CD33 K309A = human CD33 K309A (human, UniProt P20138 18-364); test: flow cytometry, HEK293-T, alanine scan
Chain of human CD33 K309A (P20138 18-364 K309A limits assumed): as the sequence (P20138 18-364 R202A limits assumed) above, with A185R, K292A counted along it
Experimental: as §1, §2

human CD33 L275A = human CD33 L275A (human, UniProt P20138 18-364); test: flow cytometry, HEK293-T, alanine scan
Chain of human CD33 L275A (P20138 18-364 L275A limits assumed): as the sequence (P20138 18-364 R202A limits assumed) above, with A185R, L258A counted along it
Experimental: as §1, §2

human CD33 Y340A = human CD33 Y340A (human, UniProt P20138 18-364); test: flow cytometry, HEK293-T, alanine scan
Chain of human CD33 Y340A (P20138 18-364 Y340A limits assumed): as the sequence (P20138 18-364 R202A limits assumed) above, with A185R, Y323A counted along it
Experimental: as §1, §2

human CD33 G327A = human CD33 G327A (human, UniProt P20138 18-364); test: flow cytometry, HEK293-T, alanine scan
Experimental: as §1, §2

human CD33 S305A = human CD33 S305A (human, UniProt P20138 18-364); test: flow cytometry, HEK293-T, alanine scan
Experimental: as §1, §2

human CD33 H317A = human CD33 H317A (human, UniProt P20138 18-364); test: flow cytometry, HEK293-T, alanine scan
Experimental: as §1, §2

human CD33 A289S = human CD33 A289S (human, UniProt P20138 18-364); test: flow cytometry, HEK293-T, alanine scan
Experimental: as §1, §2

human CD33 I278A = human CD33 I278A (human, UniProt P20138 18-364); test: flow cytometry, HEK293-T, alanine scan
Experimental: as §1, §2

human CD33 T292A = human CD33 T292A (human, UniProt P20138 18-364); test: flow cytometry, HEK293-T, alanine scan
Chain of human CD33 T292A (P20138 18-364 T292A limits assumed): as the sequence (P20138 18-364 R202A limits assumed) above, with A185R, T275A counted along it
Experimental: as §1, §2

human CD33 M334A = human CD33 M334A (human, UniProt P20138 18-364); test: flow cytometry, HEK293-T, alanine scan
Experimental: as §1, §2

human CD33 P319A = human CD33 P319A (human, UniProt P20138 18-364); test: flow cytometry, HEK293-T, alanine scan
Chain of human CD33 P319A (P20138 18-364 P319A limits assumed): as the sequence (P20138 18-364 R202A limits assumed) above, with A185R, P302A counted along it
Experimental: as §1, §2

human CD33 N297A = human CD33 N297A (human, UniProt P20138 18-364); test: flow cytometry, HEK293-T, alanine scan
Experimental: as §1, §2

human CD33 P330A = human CD33 P330A (human, UniProt P20138 18-364); test: flow cytometry, HEK293-T, alanine scan
Chain of human CD33 P330A (P20138 18-364 P330A limits assumed): as the sequence (P20138 18-364 R202A limits assumed) above, with A185R, P313A counted along it
Experimental: as §1, §2

human CD33 G295A = human CD33 G295A (human, UniProt P20138 18-364); test: flow cytometry, HEK293-T, alanine scan
Experimental: as §1, §2

human CD33 A293S = human CD33 A293S (human, UniProt P20138 18-364); test: flow cytometry, HEK293-T, alanine scan
Chain of human CD33 A293S (P20138 18-364 A293S limits assumed): as the sequence (P20138 18-364 R202A limits assumed) above, with A185R, A276S counted along it
Experimental: as §1, §2

human CD33 H300A = human CD33 H300A (human, UniProt P20138 18-364); test: flow cytometry, HEK293-T, alanine scan
Experimental: as §1, §2

| Binder | Mean % WT Binding (human CD33 R202A) [% WT binding] | Mean % WT Binding (human CD33 P203A) [% WT binding] | Mean % WT Binding (human CD33 G218A) [% WT binding] | Mean % WT Binding (human CD33 I227A) [% WT binding] | Mean % WT Binding (human CD33 V214A) [% WT binding] | Mean % WT Binding (human CD33 G260A) [% WT binding] | Mean % WT Binding (human CD33 H206A) [% WT binding] | Mean % WT Binding (human CD33 V231A) [% WT binding] | Mean % WT Binding (human CD33 T240A) [% WT binding] | Mean % WT Binding (human CD33 L229A) [% WT binding] | Mean % WT Binding (human CD33 H259A) [% WT binding] | Mean % WT Binding (human CD33 A265S) [% WT binding] | Mean % WT Binding (human CD33 K250A) [% WT binding] | Mean % WT Binding (human CD33 L210A) [% WT binding] | Mean % WT Binding (human CD33 H339A) [% WT binding] | Mean % WT Binding (human CD33 T302A) [% WT binding] | Mean % WT Binding (human CD33 L343A) [% WT binding] | Mean % WT Binding (human CD33 V294A) [% WT binding] | Mean % WT Binding (human CD33 D298A) [% WT binding] | Mean % WT Binding (human CD33 A272S) [% WT binding] | also measured |
| --- | --- | --- | --- | --- | --- | --- | --- | --- | --- | --- | --- | --- | --- | --- | --- | --- | --- | --- | --- | --- | --- |
| B1 | 123 | 105 | 102 | 105 | 127 | 102 | 108 | 88.2 | 96.9 | 106 | 94.5 | 99.7 | 85.7 | 78.2 | – | – | – | – | – | – | – |
| B2 | – | – | – | – | – | – | – | – | – | – | – | – | – | – | 82.7 | 77 | 77.8 | 84.6 | 84.5 | 110 | Mean % WT Binding (human CD33 P301A): 90.1 % WT binding; Mean % WT Binding (human CD33 R296A): 99.5 % WT binding; Mean % WT Binding (human CD33 K309A): 85.7 % WT binding; Mean % WT Binding (human CD33 L275A): 86.4 % WT binding; Mean % WT Binding (human CD33 Y340A): 88.6 % WT binding; Mean % WT Binding (human CD33 G327A): 98.7 % WT binding; Mean % WT Binding (human CD33 S305A): 103 % WT binding; Mean % WT Binding (human CD33 H317A): 71.9 % WT binding; Mean % WT Binding (human CD33 A289S): 91.8 % WT binding; Mean % WT Binding (human CD33 I278A): 100 % WT binding; Mean % WT Binding (human CD33 T292A): 85.1 % WT binding; Mean % WT Binding (human CD33 M334A): 99.4 % WT binding; Mean % WT Binding (human CD33 P319A): 70 % WT binding; Mean % WT Binding (human CD33 N297A): 83.7 % WT binding; Mean % WT Binding (human CD33 P330A): 90.3 % WT binding; Mean % WT Binding (human CD33 G295A): 101 % WT binding; Mean % WT Binding (human CD33 A293S): 87.7 % WT binding; Mean % WT Binding (human CD33 H300A): 92.8 % WT binding |
| B3 | 92.2 | 103 | 98 | 88.1 | 94.4 | 97.2 | 98.3 | 92.8 | 97 | 97.1 | 86.4 | 107 | 98 | 96.9 | – | – | – | – | – | – | – |
| B4 | – | – | – | – | – | – | – | – | – | – | – | – | – | – | 99.3 | 101 | 101 | 104 | 106 | 90.9 | Mean % WT Binding (human CD33 P301A): 105 % WT binding; Mean % WT Binding (human CD33 R296A): 102 % WT binding; Mean % WT Binding (human CD33 K309A): 98.8 % WT binding; Mean % WT Binding (human CD33 L275A): 94.6 % WT binding; Mean % WT Binding (human CD33 Y340A): 101 % WT binding; Mean % WT Binding (human CD33 G327A): 92.1 % WT binding; Mean % WT Binding (human CD33 S305A): 86.8 % WT binding; Mean % WT Binding (human CD33 H317A): 95.2 % WT binding; Mean % WT Binding (human CD33 A289S): 96 % WT binding; Mean % WT Binding (human CD33 I278A): 108 % WT binding; Mean % WT Binding (human CD33 T292A): 113 % WT binding; Mean % WT Binding (human CD33 M334A): 107 % WT binding; Mean % WT Binding (human CD33 P319A): 85.2 % WT binding; Mean % WT Binding (human CD33 N297A): 95.6 % WT binding; Mean % WT Binding (human CD33 P330A): 97.9 % WT binding; Mean % WT Binding (human CD33 G295A): 92.1 % WT binding; Mean % WT Binding (human CD33 A293S): 101 % WT binding; Mean % WT Binding (human CD33 H300A): 101 % WT binding |
